From the DeepSol protein solubility set come the findings set out here.

The data set is described as follows: soluble on expression in E. coli; label from the status in PepcDB or PDB records.
As to “MYLVCGEALFDVFSLESAARSNELGFTAIAGGSPFNVAVGLRRLGVEAALFGGLSSDYLGARLRRVLEEEGVDCGFLVPSDAPTTLAMVGLDASGSAQYQFRGEGCADRQVRLEHLPTLDGRIRGLHVGSYTLVVTPVADTLLALVRRESGRRLVSLDPNVRLDPQPDIDLWRRRVEAFASHAHLIKASEEDLALLYPGRDPGEVARGWLNPRCRLVFVTHGGAGASVHCTHGSWSRPADTALPLRDTVGAGDTFQAATLAYLRRLDADSPAGLAALSREAIDAMLAFAIRAAAVTCSRVGPDLPFAHEL”, the “soluble on expression in E. coli” value is given as “not soluble”. Consider “QIGELKTTVGNSTIKVNDEVQVGSAFEAILGIEGLNGDTEVYSAEYLFEYNAEAFILNEITSFNDSLFVKSKEVEPGKVRILVASLGNEIEKDSDLVKVNLTPKISSELEVLGLTTALVGAGDGNTHDLELSSKEVKINEEAS”, for which the “soluble on expression in E. coli” value is on record as “soluble”. For “MIGFLSDRQGFEKQYHDIDLSSFGIREGISEIIASTGFEHPNAAPIGIVMKGERPFVRLFKGSHTWENVLKEKCLASNVVYDPILFVRSTFSDLVPSEFEYVDAGEFKFPVLKEAIAWVVFECINLRNTDQSLVADLVPLNAGFNERNIKELPVPNRGFNAVLEATVHATRYQLTGEEKYLELIRHYESLASKCGGDAEKKAMKLIYEALGLLEHHHHHH” the value was “not soluble”. Turning to “MGSDKIHHHHHHMKPVVVMTQTNDMQSDLVSIIHKPFIDIKPLNFDIHLLNQRYDWLIFSSKNAVKFFYKYLKGINVDNIAVIGSKTAQYCESLGIRVDFMPNDFSQEGFLKSFNQTNQKILLPSSELARPLLLAALSKDNEVVKIDLYTSVPNKQNIQDVKEMIEHQQIDALTFSSSSAVRYYFNEGFVPKFKSYFAIGEQTARTIKTYQQPVTIAEIQTLESLIEKILESRG”, the “soluble on expression in E. coli” value is reported as “not soluble”. On to “MQLRGEVTPHIGRHAFAVLAILKGMLLETLQKVFGHKSITYVLRIHSLVRRRRSNLFLEVAHLYDQRADQLSQLLIRACFNNCQFHTKILFKILNMRQSNAHPISFPNR”, for which the “soluble on expression in E. coli” value is “not soluble”.

As to “MKVLDSRDFAKVKAIAIERASYRNIGALAVYIGSMTGMRISEVLALTWPDIDTKLCVIHVTRSWDHLYGTGFKPTKTDSSVRDIEISPSVIELLNKIHQEQAASYLRTGYRDEDQMIMRDPRHNVITDSACNKALHVIQNKAGIPEDKQITFHGLRHSHVSYLISKGVDIYYISKRLGHSDVTITMKVYGHLLDSQRKQEAHKAVLFMDQILEHHHHHH”, the “soluble on expression in E. coli” value was “not soluble”. “PVAMKEAQKRLGDKVEYTTDMYDAVRGAEALFHVTEWKEFRMPDWSALSQTMAASLVIDGRNVYELPADSDFTLLNIGNSAIESASSK”: the “soluble on expression in E. coli” value was “not soluble”. The same measure for “MSLRAYIPIDKYSLPEKFEIPLGNTNYIFEVDYNQTEKFFTVDLYDIDHTPIAIGERMVIDERLWQDIVDTRLPSADLVPMDESGASKEITFENFGIQVFLYIDDLPPNYNVPSLEREDN”: “not soluble”.

As to “MGSDKIHHHHHHMKNLQVVEKEFSSLPIIDISALVSGKGNLYSAASQIRQACRESGFFYIIGHGVDENLQQRLEELSRQFFAQDLETKLKIRMALAGIAWRGYFPVGGELTSGKPDLKEGIYFGTELPDEHPLVQAGTPMHGANLFPANMPQFGETVLEYIEAMTKLGHTLMTGIAMSLGLEESYFADRYTSDPLVLFRIFNYPPNLSPSDGNPIWGVGEHTDYGVLTILKQDDSGGLQVKSKSGWVAAPPVPGSFVCNIGDMLDKMTGGFYRSTPHRVQNQSQNHRLSFPFFFDPNFDVEVKPIELDNYSSE”, the “soluble on expression in E. coli” value is listed as “not soluble”. For “MISDRPGLPGEDMRLALLSFENYLLANRNTEKPVLHIALSPAPEDKLTDEQLAELAQNYMQKMGYGDQPYIAYKHGDTHNTHIHIVSVCVDEEGRKINDSFEHRRSMTACRELEIDFGLRNGADMEERNQKAEMKKVDATQGDVRHQIGNTLKAVLESYRFQTFGEYSALLSTLNIEAKQVRGEFKGEPYTGIIYSATDDSGKVVSPPFKSSRFGKRFGNERLEKRMLSHTRDFKDGKWAPTIHAQVVYAMRHARSREELAGLLKKARIDAVFRENEQGRIYGVTFIDHNRREVFNGSRMGKEFSANIYNELFKWWDGIPATERSAHTGTELWQHHSHKAESGSPLEQAASIFSMETNPVDYGEEALARRMKKRRKAKRKSRGI” the value was “not soluble”; for “SASSDLEQLCSHVNEKIGNIKKTLSLRNCGQEPTLKTVLNKIGDEIIVINELLNKLELEIQYQEQTNNSLKELCESLEEDYKDIEHLKENVPSHLPQVTVTQSCVKGSDLDPEEPIKVEEPEPVKKPPKEQRSIKEMPFITCDEFNGVPSYMKSRLTYNQINDVIKEINKAVISKYKILHQPKKSMNSVTRNLYHRFIDEETKDTKGRYFIVEADIKEFTTLKADKKFHVLLNILRHCRRLSEVRGGGLTRYVIT”, “soluble”. For “MIRRAVVAGQFYPDDAELVEMLKRFFTDLGEEGNSRRITAGVAPHAGYIFSGYTASRTYKAIYEDGLPEVFVILGPNHTGLGSPIAVYPKGEWETPLGRIKVDEKLARRITELSEIADLDDLAHKYEHSIEVQLPFIQYLAELSGKDVKIVPITLGIQDEEVSYALGKAIYEASQELGRDIVVIASTDFMHYGEFYGYVPFRARADELPNLVKEWDMRVIRRILDFDVEGMFEEINAMNHTMCGPGGVGVGIVYSKLAGAIEAELLHYTTSFEVSRSTDAIVGYASIVMRKALEHHHHHH” the value was “not soluble”; for “MLAFFRRFMSTTTVTAQPVLPWFRNVPLAPADPILGVTEAFKKDTNPNKINLGVGAYRDDQGKPFVLRAVREAEQQIIDAKMDKEYSTITGVPEFAPLAAKLAFGDNSEVIRDGRVFTTQSISGTGALRIGGQFVEKFIPSKTLFYPTPTWANHLPVFRNSGLSIQPYRYYNQETLGFDVEGALEDISKMPEGSVILLHACAHNPTGVDPTKEQWKKLSQVLKERKILPFFDMAYQGFASGDVDDDAFALRHFIEQGHNVLVAQSFAKNMGLYGERVGAFSIVCDSAEEAIRVGSQMRIIIRPMISMPPLHGARIASRILSNPELKKSWLEDVKLMADRIKSMRTALKDGLKAEGSTLNWDHITNQIGMFCFTGINEKQVQKLIKEHSVYLTNDGRISISGINTGNVAYLAKALHDVTK”, “not soluble”. For “MRKEAIHHRSTDNFAYAYDSETLHLRLQTKKNDVDHVELLFGDPYEWHDGAWQFQTMPMRKTGSDGLFDYWLAEVKPPYRRLRYGFVLRAGGEKLVYTEKGFYHEAPSDDTAYYFCFPFLHRVDLFQAPDWVKDTVWYQIFPERFANGNPAISPKGARPWGSEDPTPTSFFGGDLQGIIDHLDYLADLGITGIYLTPIFRAPSNHKYDTADYFEIDPHFGDKETLKTLVKRCHEKGIRVMLDAVFNHCGYEFAPFQDVLKNGAASRYKDWFHIREFPLQTEPRPNYDTFAFVPHMPKLNTAHPEVKRYLLDVATYWIREFDIDGWRLDVANEIDHQFWREFRQAVKALKPDVYILGLIWHDAMPWLRGDQFDAVMNYPLADAALRFFAKEDMSASEFADRLMHVLHSYPKQVNEAAFNLLGSHDTPRLLTVCGGDVRKVKLLFLFQLTFTGSPCIYYGDEIGMTGGNDPECRKCMVWDPEKQNKELYEHVKQLIALRKQYRALRRGDVAFLTADDEVNHLVYAKTDGNETVMIIINRSNEAAEIPMPIDARGKWLVNLLTGERFAAEAETLCVSLPPYGFVLYAVESW” the value was “soluble”; for “MEKLAIGVDVGTTQAKAVAFQANGTVVASSYVRYPLIQETEGMAEQDPETLFQAVVNCIRTVTQQVKNQPIGLISFASAMHGLIAMDAQGRPLTQVITWADTRASDYAEALKETPAAQLFYQLTGMPVHPMAPLYKIRWLQENQPAVAQSAAKFIGIKDYIFYRFFGEYWTDYSSASGMGLFNIHTRQWETSILAYLSIEEEQLPKVAPSTFIFPALAPSWQEMLGVEEETVLVLGGADGPLSNLGLGALGMGVATLTVGTSGALRYIVEEPFLHPQGETFCFALDEQHWVIGGASSNGAVALDWASQTIFAEERQQAIQNGTNLYDPIMAKIATVPAGANGLLFHPYLLGERAPLWNAEASASFIGLRKNHHAGHLARAVVEGICFNLKTILEDLKQLGGPVQEIRATGGFADSPVFRQIMADVLGETLSFTDSTEASALGAVLLGWQGLGQLPNLQAAAQQVLIHETVTPRADQLLVYQELYPVFQETQQVLAQSYQKLAEFRK”, “not soluble”.
